The assay deals with human activated blood coagulation factor X (FXa) (human). Put plainly: SPR; […]; 37°C; HBS (10 mM Hepes, 150 mM NaCl, 5 mM CaCl2, 0.005% P20, pH 7.4); Langmuir fit; […]. (In general: SPR reads the build-up and loss of mass on a sensor chip optically.)

Usually Kd stands for a measure of binding affinity in units of concentration. What is called koff is a measure of how fast the partners let go of each other. Read a high koff as fast dissociation. What is called kon is the rate constant with which the complex forms. In turn, “Myotoxin II from Bothrops asper venom (from UniProt P24605 17-137) (natural protein)” came in with a dissociation constant Kd of 1.8 nM, a koff of 0.0178 s⁻¹ and a kon of 1.04e+07 M⁻¹ s⁻¹.
